This note sets out measurements from FireProtDB (doi:10.1006/jmbi.1993.1336).

The conditions of the series: Aspergillus oryzae (strain ATCC 42149 / RIB 40), GdnHCl, Fluorescence, reversible: yes, whole UniProt chain shown.
The mark [1] stands for this setting: pH 5, 25 °C, Sodium acetate 0.1 M.

B1: Guanyl-specific ribonuclease T1 wild type, P00651 (protein)
chain: MMYSKLLTLTTLLLPTALALPSLVERACDYTCGSNCYSSSDVSTAQAAGYQLHEDGETVGSNSYPHKYNNYEGFDFSVSSPYYEWPILSSGDVYSGGSPGADRVVFNENNQLAGVITHTGASGNNFVECT
In the case of B1, the denaturant m value is, setting by setting: under setting [1], 2.75 kcal/mol/M; (pH 8, 10 °C, Tris 0.1 M) 2.63 kcal/mol/M; (pH 8, 25 °C, Tris 0.1 M) 2.46 kcal/mol/M. Besides, the “denaturant midpoint (higher = more stable)” value runs as follows: under setting [1], 3.64 M; (pH 8, 10 °C, Tris 0.1 M) 3.21 M; (pH 8, 25 °C, Tris 0.1 M) 2.4 M. Also, the unfolding free energy runs as follows: under setting [1], 10 kcal/mol; (pH 8, 10 °C, Tris 0.1 M) 8.44 kcal/mol; (pH 8, 25 °C, Tris 0.1 M) 5.91 kcal/mol.
